{"source": "patent US20250012721A1", "about": "“FLUORESCENCE DETECTION KIT FOR ACTIVATED COMPLEMENT C1s, DETECTION METHOD USING SAME, AND USE THEREOF” (JIANGSU UNIVERSITY, priority 2022, published 2025)", "molecular_target": "T1, activated C1s (Homo sapiens, UniProt P09871)", "T1 construct": "purchased Complement Technology", "T1 sequence (P09871 16-437 limits assumed)": "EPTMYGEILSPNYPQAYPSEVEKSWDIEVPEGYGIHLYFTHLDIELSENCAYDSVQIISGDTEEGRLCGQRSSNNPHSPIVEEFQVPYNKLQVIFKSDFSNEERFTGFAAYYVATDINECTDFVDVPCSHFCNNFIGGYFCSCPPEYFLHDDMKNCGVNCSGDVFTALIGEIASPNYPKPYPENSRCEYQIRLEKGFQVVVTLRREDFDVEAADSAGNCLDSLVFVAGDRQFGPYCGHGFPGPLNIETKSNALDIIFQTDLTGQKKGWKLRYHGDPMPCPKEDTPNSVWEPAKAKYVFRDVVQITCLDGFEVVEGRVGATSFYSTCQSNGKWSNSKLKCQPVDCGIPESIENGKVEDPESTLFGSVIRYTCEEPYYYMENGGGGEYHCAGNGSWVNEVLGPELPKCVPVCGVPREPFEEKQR", "T1 sequence (P09871 438-688 limits assumed)": "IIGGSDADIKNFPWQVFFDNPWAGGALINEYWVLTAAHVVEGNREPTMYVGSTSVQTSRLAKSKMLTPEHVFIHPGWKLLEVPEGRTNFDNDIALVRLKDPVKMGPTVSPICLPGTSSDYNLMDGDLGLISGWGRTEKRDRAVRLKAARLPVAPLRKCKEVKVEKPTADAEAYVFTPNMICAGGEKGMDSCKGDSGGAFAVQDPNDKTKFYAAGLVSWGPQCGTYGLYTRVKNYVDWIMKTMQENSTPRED", "assay": "Anti-interference experiment of fluorescence detection method for activated C1s", "type": "biochemical", "settings": "for measured activated C1s enzymatic activity: n = 4", "experimental": "• 1. Preparation of a buffer: 1) Binding Buffer: 0.1 M morpholinoethanesulfonic acid (MES, pH=5.0); • 2) Washing Buffer: TBS containing 0.05% Tween 20; • 3) Blocking Buffer: containing 0.05 M Tris, 1.0% BSA, and 0.05% Tween 20; • 4) Desired Buffer: Tris buffer containing 0.05% Tween 20 and BSA; and • 5) Tris Buffer: 0.05 M Tris, 0.15 M NaCl, and 0.2% (w/v) polyethylene glycol 8000. • 2. Preparation of immunomagnetic beads (C1s recombinant antibody-coupled magnetic beads) • (1) 10 mg of magnetic beads (Merck carboxyl magnetic beads, with a particle size of 1 μm) were washed 3 times with 1 mL of Binding Buffer, and vortexed to mix evenly. • (2) 20 μg of the C1s recombinant antibody obtained in Example 1 was added into every 1 mg of the magnetic beads, mixed well, and vortexed at a room temperature (25° C.) for 15 min. • (3) 50 μg of a coupling agent was added into every 1 mg of the magnetic beads, mixed well, and vortexed at a room temperature for 1 h. • (4) 1 mL of Binding Buffer was added and vortexed at a room temperature for 3 h. • (5) The magnetic beads were washed 4 times with 0.5 mL of Washing Buffer. • (6) The magnetic beads were resuspended with 1 mL of Desired Buffer to obtain C1s recombinant antibody-coupled magnetic beads with a concentration of 5 mg/mL, and stored at 4° C. until later use. • 3. Detection of the enzymatic activity of activated C1s • (1) 60 μL of the C1s recombinant antibody-coupled magnetic beads were stirred evenly, subjected to magnetic suction to remove a supernatant, added with 200 μL of PBS to mix well, subjected to the magnetic suction to remove a supernatant, and washed repeatedly 2 times. • (2) 10 μL of a sample to be tested or activated C1s standards with different concentrations were diluted to 100 μL with PBS, and mixed vertically with the C1s recombinant antibody-coupled magnetic beads at a room temperature for 10 min. The magnetic suction was performed to discard a supernatant. According to the enzymatic activity of the C1s standard determined in Example 4, the enzymatic activity conversion of the C1s standards with different concentrations is shown in Table 2.\n• (3) The magnetic beads were repeatedly washed 3 times with 100 μL of PBS. • (4) The magnetic beads were resuspended with 90 μL of Tris buffer. • (5) 10 μL of substrate peptide 3 was added at a concentration of 1 μg/mL. • (6) The detection was performed with a microplate reader at 360/40 excitation light wave and 460/40 emission light wave, with a best reaction time of 1 h as a detection point, and the fluorescence signals were measured and recorded. The straight line fitting was performed by taking a C1s enzymatic activity as an abscissa and a fluorescence signal as an ordinate with a double logarithmic Log-Log mathematical model and using a least square method to plot a standard curve.\nThe possibility that bilirubin, chyle, and hemoglobin in clinical samples cause interference in the experiment was taken into account. Referring to the interference check A kit, high-, medium-, and low-concentration standards were added with different concentrations of bilirubin (with final concentrations of 0 mg/mL, 0.06 mg/mL, 0.14 mg/mL, and 0.20 mg/mL, respectively), chyle (with final concentrations of 0 FTU, 600 FTU, 1,400 FTU, and 2,000 FTU, respectively), and a hemoglobin solution (with final concentrations of 0 mg/mL, 1.5 mg/mL, 3.5 mg/mL, and 5 mg/mL, respectively). The measured high, medium and low average concentrations containing different interfering substances were subtracted from the corresponding average concentrations without interfering substances, and a difference and a percentage of the difference in an average concentration of a blank control without interfering substances were calculated."}
{"substance": "Hemoglobin: hemoglobin solution, interfering substance from interference check A kit", "values": [{"measurement": "measured activated C1s enzymatic activity", "setting": "High value standard, hemoglobin 1.5 mg/mL", "result": "60.57 ± 3.66", "unit": "pmol/min/µg"}, {"measurement": "measured activated C1s enzymatic activity", "setting": "High value standard, hemoglobin 3.5 mg/mL", "result": "56.23 ± 4.58", "unit": "pmol/min/µg"}, {"measurement": "measured activated C1s enzymatic activity", "setting": "High value standard, hemoglobin 5 mg/mL", "result": "59.50 ± 5.13", "unit": "pmol/min/µg"}, {"measurement": "measured activated C1s enzymatic activity", "setting": "Low value standard, hemoglobin 1.5 mg/mL", "result": "6.00 ± 0.59", "unit": "pmol/min/µg"}, {"measurement": "measured activated C1s enzymatic activity", "setting": "Low value standard, hemoglobin 3.5 mg/mL", "result": "6.2 ± 0.56", "unit": "pmol/min/µg"}, {"measurement": "measured activated C1s enzymatic activity", "setting": "Low value standard, hemoglobin 5 mg/mL", "result": "6.37 ± 0.51", "unit": "pmol/min/µg"}, {"measurement": "measured activated C1s enzymatic activity", "setting": "Medium value standard, hemoglobin 1.5 mg/mL", "result": "29.47 ± 1.15", "unit": "pmol/min/µg"}, {"measurement": "measured activated C1s enzymatic activity", "setting": "Medium value standard, hemoglobin 3.5 mg/mL", "result": "28.16 ± 2.68", "unit": "pmol/min/µg"}, {"measurement": "measured activated C1s enzymatic activity", "setting": "Medium value standard, hemoglobin 5 mg/mL", "result": "28.23 ± 1.45", "unit": "pmol/min/µg"}, {"measurement": "interference with the detection method", "setting": "hemoglobin 5 mg/mL", "result": "not interfered"}]}
